T1: soluble recombinant cynomolgus TCR alpha/beta-zipper protein (cynomolgus/rhesus monkey)
T1 construct: Made in house in CHOK1SV cells; extracellular domains fused to a zipper protein; also called cynoTCR-zipper protein; not shown: zipper protein (O'Shea et al. 1993)
T1 V domain 1: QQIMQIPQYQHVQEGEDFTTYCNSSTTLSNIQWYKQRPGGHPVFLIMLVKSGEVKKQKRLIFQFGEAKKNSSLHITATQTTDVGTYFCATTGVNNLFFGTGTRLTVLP
T1 V domain 2: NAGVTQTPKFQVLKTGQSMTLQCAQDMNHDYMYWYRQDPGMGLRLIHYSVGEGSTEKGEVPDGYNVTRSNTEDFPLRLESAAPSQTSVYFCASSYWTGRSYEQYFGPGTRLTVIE

T2: human CD20 on cells (human, UniProt P11836 1-297)
T2 sequence (looked up): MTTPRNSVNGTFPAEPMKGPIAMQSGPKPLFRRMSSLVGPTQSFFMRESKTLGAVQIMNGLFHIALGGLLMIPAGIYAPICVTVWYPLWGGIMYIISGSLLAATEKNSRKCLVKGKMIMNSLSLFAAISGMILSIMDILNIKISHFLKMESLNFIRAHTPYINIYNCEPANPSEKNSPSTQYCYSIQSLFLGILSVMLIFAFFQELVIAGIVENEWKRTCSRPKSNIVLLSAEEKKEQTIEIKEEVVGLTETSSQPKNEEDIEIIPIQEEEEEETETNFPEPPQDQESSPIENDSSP

T3: T cell receptor alpha/beta on purified primary human T cells (human, UniProt P01848 1-140; P01850 1-176)
T3 construct: whole, on cells; also called human primary T cells
T3 TCR alpha (looked up): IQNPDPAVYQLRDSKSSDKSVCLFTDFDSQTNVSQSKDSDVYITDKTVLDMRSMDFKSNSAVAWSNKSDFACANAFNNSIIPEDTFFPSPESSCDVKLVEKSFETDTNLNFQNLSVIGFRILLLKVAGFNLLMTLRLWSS
T3 TCR beta (looked up): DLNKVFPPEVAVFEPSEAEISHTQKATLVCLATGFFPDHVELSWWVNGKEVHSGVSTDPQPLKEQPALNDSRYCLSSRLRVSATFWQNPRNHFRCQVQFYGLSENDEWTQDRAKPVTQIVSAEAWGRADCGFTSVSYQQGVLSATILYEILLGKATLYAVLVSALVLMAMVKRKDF


Legend:
[1] = target: T1, soluble recombinant cynomolgus TCR …; assay: ELISA, 2 µg/mL coated soluble recombinant cynomolgus TCR α/β-zipper protein, OD 450 nm
Procedure: (§1) Quality of the TCR α/β zipper proteins was assessed in an ELISA binding assay. Maxisorp 96-well ELISA plates (Nunc) were coated with 2 μg/mL soluble recombinant human TCR α/β (2XN9)-zipper protein or soluble recombinant cynomolgus TCR α/β-zipper protein. After an overnight incubation, plates were washed and blocked with PBS+1% casein for 1 h at room temperature. Next, plates were incubated with serial dilutions of either a functional flag tagged Nanobody or the functional mouse IgG anti-non-human primate/Rat TCRα/β antibody, clone R73 (eBioscience 16-5960) for 1 h at room temperature while shaking, washed again and incubated with mouse anti-flag-HRP (Sigma, #A8592) respectively rabbit anti-mouse-HRP (Dako, # P0260). After 1 h, TMB One Solution (Promega #G7431) was added. The reaction was stopped with 2M H₂SO₄ and the dose dependent binding was determined by measuring the OD at 450 nm using the Tecan sunrise 4 (FIG. 2).

[2] = target: T2, human CD20 on cells; assay: cell-based or functional assay
[3] = target: T3, T cell receptor alpha/beta on purified …; assay: flow cytometry, purified primary human T cells; purified primary human T cells
[4] = target: T2, human CD20 on cells; assay: flow cytometry, Ramos cells
[5] = target: T2, human CD20 on cells; assay: cell-based or functional assay; remark: listed apart in the source
[6] = target: T2, human CD20 on cells; assay: flow cytometry on Ramos cells, MCF (Mean PE)
[7] = target: T2, human CD20 on cells; assay: flow cytometry on Raji cells, MCF (Mean PE)
[8] = target: T4, human CD3 expressed on HEK293H cells (human, UniProt P04234 22-171; P09693 23-182; P07766 23-207; P20963 22-164); assay: flow cytometry, HEK293H human CD3 cells
T4 construct: also called HEK293H human CD3; HEK293H CD3
T4 sequence (P04234 22-171 limits assumed, chain 1 of 4): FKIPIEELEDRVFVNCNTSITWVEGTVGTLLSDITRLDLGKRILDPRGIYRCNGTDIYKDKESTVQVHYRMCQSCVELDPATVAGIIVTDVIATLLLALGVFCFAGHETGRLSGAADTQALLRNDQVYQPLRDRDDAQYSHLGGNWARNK
T4 sequence (P09693 23-182 limits assumed, chain 2 of 4): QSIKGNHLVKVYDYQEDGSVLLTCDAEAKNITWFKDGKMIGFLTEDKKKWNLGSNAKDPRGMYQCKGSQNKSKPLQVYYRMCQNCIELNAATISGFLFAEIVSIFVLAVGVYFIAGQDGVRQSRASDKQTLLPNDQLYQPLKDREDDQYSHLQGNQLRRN
T4 sequence (P07766 23-207 limits assumed, chain 3 of 4): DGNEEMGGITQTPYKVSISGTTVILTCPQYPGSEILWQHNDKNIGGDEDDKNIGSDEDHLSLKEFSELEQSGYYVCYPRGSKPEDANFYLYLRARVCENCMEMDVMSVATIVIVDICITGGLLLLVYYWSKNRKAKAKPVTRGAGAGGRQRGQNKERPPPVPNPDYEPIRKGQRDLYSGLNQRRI
T4 sequence (P20963 22-164 limits assumed, chain 4 of 4): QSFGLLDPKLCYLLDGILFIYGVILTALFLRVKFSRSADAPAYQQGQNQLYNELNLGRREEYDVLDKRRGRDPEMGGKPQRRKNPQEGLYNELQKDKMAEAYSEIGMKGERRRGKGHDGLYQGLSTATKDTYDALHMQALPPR
Procedure: (§2) Binding of purified monovalent anti-TCR Nanobodies to human TCR(2IAN)/CD3 expressed on HEK293H cells was evaluated and compared with the binding to HEK293H cells transfected with human CD3 in flow cytometry, as outlined in Example 5. Dilution series of anti-TCR Nanobodies starting from 1 μM were applied to the cells. The parental HEK293H cell line was included as TCR/CD3 negative cell line.
Nanobodies clearly bound to human TCR(2IAN)/CD3 expressed on HEK293H but not to the HEK293H cells transfected with human CD3 only, nor to the HEK293H parental cell line. The EC50 values obtained from the dose response curve are depicted in Table C-2.

[9] = target: T3, T cell receptor alpha/beta on purified …; assay: flow cytometry, purified primary human T cells
Procedure: Periplasmic extracts were screened for cell expressed TCR/CD3 binding using human TCR/CD3 transfected CHO-K1 or HEK293H cells and the respective CHO-K1 or HEK293H reference cell line in a mixed cell line setup. To this end, a large batch of the reference cell lines were labelled with 8 μM PKH26 and frozen. 5×10⁴ PKH labelled reference cells were mixed with 5×10⁴ target cells and incubated with periplasmic extracts for 30 min at 4′C, and washed 3 times. […] Samples were washed, resuspended in FACS Buffer (D-PBS from Gibco, with 10% FBS from Sigma and 0.05% sodium azide from Merck) and then analysed via a BD FACSArray. […] In this gate, 20,000 cells were counted during acquisition. Based on PKH26-SSC distribution, the PKH labelled parental population and the human TCR/CD3 unlabelled target population was selected. For these 2 populations the mean APC value was calculated.
Binding of purified monovalent anti-TCR Nanobodies to human TCR(2XN9)/CD3 expressed on CHO-K1 cells and to purified primary human T cells was evaluated in flow cytometry as outlined in Example 4.1.

[10] = target: T4, human CD3 expressed on HEK293H cells; assay: flow cytometry on HEK293H human CD3 cells, MCF
Procedure: as §2

[11] = target: T1, soluble recombinant cynomolgus TCR …; assay: ELISA, coated soluble cynomolgus TCR-zipper
Procedure: as §1
Binding of purified monovalent anti-TCR Nanobodies to soluble recombinant cynomolgus TCR c/3 protein was evaluated in ELISA (as described in Example 1.2) using 2 μg/ml directly coated recombinant soluble cynomolgus TCR-α/β zipper protein.

[12] = target: T1, soluble recombinant cynomolgus TCR …; assay: BLI (Octet RED384), immobilized cynomolgus TCR-zipper
Procedure: Binding affinities were measured using Bio-Layer Interferometry (BLI) on an Octet RED384 instrument (Pall ForteBio Corp.). Recombinant human soluble TCR(2XN9)-zipper protein was covalently immobilized on amine-reactive sensors (ForteBio) via NHS/EDC coupling chemistry. For kinetic analysis, sensors were first dipped into running buffer (10 mM Hepes, 150 mM NaCl, 0.05% p20, pH7.4 from GE Healthcare Life Sciences) to determine baseline setting. […] Affinity constants (KD) were calculated applying a 1:1 interaction model using the ForteBio Data Analysis software.
Binding affinities of the monovalent anti-TCR Nanobodies were measured using Bio-Layer Interferometry (BLI) on an Octet RED384 instrument (Pall ForteBio Corp.) essentially as described in Example 7.1 using cynomolgus TCR α/β zipper.

[13] = target: T1, soluble recombinant cynomolgus TCR …; assay: as above
[14] = target: T5, EGFR on cells (UniProt P00533 25-1210, limits assumed); assay: flow cytometry on HER14 cells, MeanFI (PE)
T5 construct: whole, on cells; also called HER14 cells (NIH3T3 transfected with EGFR); EGFR on LS174T and LoVo cells

[15] = target: T6, T cell receptor alpha/beta on primary cynomolgus T cells (cynomolgus); assay: cell-based or functional assay
[16] = target: T3, T cell receptor alpha/beta on purified …; assay: flow cytometry, purified primary human T cells
[17] = target: T6, T cell receptor alpha/beta on primary …; assay: cell-based or functional assay; remark: listed apart in the source
[18] = target: T6, T cell receptor alpha/beta on primary …; assay: cell-based or functional assay; remark: listed apart in the source
[19] = target: T6, T cell receptor alpha/beta on primary …; assay: cell-based or functional assay; remark: listed apart in the source

| Binder | IC50, xCELLigence human T cell mediated CHO-K1 CD20 killing assay, E:T 30:1, 44 h [2] [nM] | EC50 [4] [nM] | IC50, flow cytometry based human T cell mediated Ramos killing assay, E:T 10:1 [5] [nM] | MCF at 1 µM [8] [MCF] | EC50 [9] [nM] | binding result [10] | EC50 [11] [nM] | Kd [12] [nM] | koff [12] [s⁻¹] | kon [12] [M⁻¹ s⁻¹] | fold lower affinity than for soluble recombinant human TCR α/β zipper [13] [fold] | further results |
| --- | --- | --- | --- | --- | --- | --- | --- | --- | --- | --- | --- | --- |
| cAblys (VHH, also called cAblys3; irrelevant anti-egg lysozyme Nanobody) VHH: DVQLQASGGGSVQAGGSLRLSCAASGYTIGPYCMGWFRQAPGKEREGVAAINMGGGITYYADSVKGRFTISQDNAKNTVYLLMNSLEPEDTAIYYCAADSTIYASYYECGHGLSTGGYGYDSWGQGTQVTVSS | – | – | – | – | – | – | – | – | – | – | – | binding result [1]: no binding (tested: 1e-6 M) |
| T017000068 (bispecific antibody, CD20 x TCR bispecific Nanobody construct (cluster B); entry includes the FLAG3-HIS6 tag; also called 20CD019C07-35GS-T0170055C07-FLAG3-HIS6) EVQLVESGGGLVQPGGSLRLSCTFSGGTFSSYTMGWFRQAPGKEREFVAEVRWGGVTTYSNSLKDRFSISEDSVKNAVYLQMNSLKPEDTAVYYCAAVRQMYMTVVPDYWGQGTLVTVSSGGGGSGGGGSGGGGSGGGGSGGGGSGGGGSGGGGSEVQLVESGGGLVQPGGSLRLSCITSGETFKINIWGWYRQAPGKQRELVASLTIGGATNYADSVKGRFTISEDSAKNTVYLQMNSLKPEDTAVYFCNAKSRLYPYDYWGQGTLVTVSSGAADYKDHDGDYKDHDIDYKDDDDKGAAHHHHHH | 13 | 1.8 | 1 | – | – | – | – | – | – | – | – | EC50 [3]: 6.2 nM |
| anti-CD20 Nanobody (VHH) VHH: EVQLVESGGGLVQPGGSLRLSCTFSGGTFSSYTMGWFRQAPGKEREFVAEVRWGGVTTYSNSLKDRFSISEDSVKNAVYLQMNSLKPEDTAVYYCAAVRQMYMTVVPDYWGQGTLVTVSS | – | – | – | – | – | – | – | – | – | – | – | EC50 (read off the curve) [6]: ~9 nM; EC50 (read off the curve) [7]: ~20 nM |
| T0170055A02 (VHH, Monovalent anti-TCR Nanobody, cluster A; expressed in E. coli as triple Flag, His6-tagged protein; also called T0170PMP055A02; T01700055A02; not shown: C-terminal triple Flag-His6 tag of the E. coli-made monovalent Nanobody) VHH: EVQLVESGGGLVQPGGSLRLSCAASGDVHKINILGWYRQAPAKEREMVAHITIGDATDYADSAKGRFTISRDEAKNMVYLQMNSLKPEDTAVYFCRAYSRIYPYNYWGQGTLVTVSS | – | – | – | 1190 | 91 | no binding (tested: 1e-6 M) | 160 | 210 | 0.024 | 110000 | 10 | – |
| T0170056G05 (VHH, Monovalent anti-TCR Nanobody, cluster A; expressed in E. coli as triple Flag, His6-tagged protein; also called T0170PMP056G05; T01700056G05; not shown: C-terminal triple Flag-His6 tag of the E. coli-made monovalent Nanobody) VHH: EVQLVESGGGLVQPGGSLRLSCVASGDVHKINFLGWYRQAPGKEREKVAHISIGDQTDYADSAKGRFTISRDESKNMVYLQMNSLKPEDTAVYFCRAFSRIYPYDYWGQGTLVTVSS | – | – | – | 352 | 91 | no binding (tested: 1e-6 M) | 77 | 150 | 0.016 | 110000 | 10 | binding result [14]: no binding (tested: 5e-7 M) |
| T017000076 (bispecific antibody, CD20 x TCR bispecific Nanobody construct (cluster A); entry includes the FLAG3-HIS6 tag; also called 20CD019C07-35GS-T0170056G05-FLAG3-HIS6) EVQLVESGGGLVQPGGSLRLSCTFSGGTFSSYTMGWFRQAPGKEREFVAEVRWGGVTTYSNSLKDRFSISEDSVKNAVYLQMNSLKPEDTAVYYCAAVRQMYMTVVPDYWGQGTLVTVSSGGGGSGGGGSGGGGSGGGGSGGGGSGGGGSGGGGSEVQLVESGGGLVQPGGSLRLSCVASGDVHKINFLGWYRQAPGKEREKVAHISIGDQTDYADSAKGRFTISRDESKNMVYLQMNSLKPEDTAVYFCRAFSRIYPYDYWGQGTLVTVSSGAADYKDHDGDYKDHDIDYKDDDDKGAAHHHHHH | 0.36 | 1.8 | 0.3 | – | – | – | – | – | – | – | – | IC50, xCELLigence cynomolgus T cell mediated CHO-K1 human CD20 killing assay [15]: 0.14 nM; EC50 [16]: 130 nM; IC50, xCELLigence cynomolgus T cell mediated CHO-K1 human CD20 killing assay, E:T 30:1 [17]: 0.67 nM; IC50, flow cytometry based cynomolgus T cell mediated B cell (Ramos) killing assay [18]: 0.309 nM; IC50, cynomolgus T cell dependent B cell (Ramos) killing assay [19]: 0.52 nM |

From patent US20190112392A1 (Ablynx, published 2019)
